# Source: publication PMC8262854
# Read-outs that look alike come from different tables or passages of the source.
# Key:
# [1] = biological target: Du172.17 gp140.664.R4 Env trimer (HIV-1 Du172.17 (clade C)); test: crystal structure
substance,measurement,setting,value
BG505.T332N Env (pseudovirus glycan hole mutant P291T): P291T (glycan site added at N289),other,N-glycosylation at N289,decreases
BG505.T332N Env (pseudovirus glycan hole mutant S241N): S241N (glycan site added),other,N-glycosylation at N241,decreases
BG505.T332N Env (pseudovirus glycan hole mutant T465N): T465N (glycan site added),other,N-glycosylation at N465,decreases
Du172.17 gp140.664.R4 Env trimer (complex),stoichiometry N,[1],3
